Broadly, the Kd is the concentration at which binding is half-saturated. A low value points to higher affinity.

Positions count from the first letter of the chain named. In names and notes the source's numbering stands.

This passage reports Kd results from PMC10786891, “Massively parallel profiling of RNA-targeting CRISPR-Cas13d”.

The labels stand for the following.
T1: EsCas13d, nuclease-dead (Eubacterium siraeum, UniProt B0MS50, R295A;H300A;R849A;H854A)
T1 sequence: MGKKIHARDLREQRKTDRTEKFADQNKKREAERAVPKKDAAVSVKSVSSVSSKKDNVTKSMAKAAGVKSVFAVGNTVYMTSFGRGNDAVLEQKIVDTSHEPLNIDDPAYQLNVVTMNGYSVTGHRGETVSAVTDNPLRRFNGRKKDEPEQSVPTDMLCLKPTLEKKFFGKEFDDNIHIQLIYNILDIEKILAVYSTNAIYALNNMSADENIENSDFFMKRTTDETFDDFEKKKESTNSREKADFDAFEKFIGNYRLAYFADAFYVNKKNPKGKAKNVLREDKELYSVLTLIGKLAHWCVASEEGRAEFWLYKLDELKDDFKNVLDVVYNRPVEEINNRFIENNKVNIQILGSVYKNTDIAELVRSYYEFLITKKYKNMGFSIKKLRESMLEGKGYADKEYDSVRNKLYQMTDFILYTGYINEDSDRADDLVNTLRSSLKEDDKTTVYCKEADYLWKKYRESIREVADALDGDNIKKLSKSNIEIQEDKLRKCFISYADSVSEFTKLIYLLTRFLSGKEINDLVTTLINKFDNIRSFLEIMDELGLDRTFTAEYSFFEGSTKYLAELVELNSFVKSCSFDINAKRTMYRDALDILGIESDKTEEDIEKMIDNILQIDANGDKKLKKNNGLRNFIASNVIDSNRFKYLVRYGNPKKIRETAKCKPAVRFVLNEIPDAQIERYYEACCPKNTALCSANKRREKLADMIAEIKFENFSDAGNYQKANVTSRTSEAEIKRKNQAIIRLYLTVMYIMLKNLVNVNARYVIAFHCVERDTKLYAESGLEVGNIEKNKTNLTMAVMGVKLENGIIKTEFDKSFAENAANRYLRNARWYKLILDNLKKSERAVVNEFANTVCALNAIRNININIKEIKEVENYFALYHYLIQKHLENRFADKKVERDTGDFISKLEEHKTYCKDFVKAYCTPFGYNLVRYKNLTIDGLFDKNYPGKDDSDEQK

B1: target 1 C2U,U10A (mixed)
RNA 1: CACCCGUGCAAAAAUGCAGGGGUCUAAAACUGAGCGGAUAACCUCUCUAUGG
RNA 2: GGGAAUGGAUCCACAUCUACGAAUUCGUACCAUAGAGAGGUAAUCCGCUUACCGAGAUCGGAAGAGCACACGU
B2: target 1 C2A,C21U (mixed)
RNA 1: B1 RNA 1
RNA 2: B1 RNA 2 with C31U, A42U, U50A
B3: target 1 G13U,A16C (mixed)
RNA 1: B1 RNA 1
RNA 2: B1 RNA 2 with A36C, G39U, A42U, U50C
B4: target 1 insA 3' of 12,insA 3' of 4 (mixed)
RNA 1: B1 RNA 1
RNA 2: GGGAAUGGAUCCACAUCUACGAAUUCGUACCAUAGAGAGGAUUAUCCGCAUCACCGAGAUCGGAAGAGCACACGU
B5: target 2 MT 5'PFS UUC 3'PFS UCC (mixed)
RNA 1: CACCCGUGCAAAAUUGCAGGGGUCUAAAACCUUCUCCAAAUUGUUUCAUCCU
RNA 2: GGGAAUGGAUCCACAUCUACGAAUUCUUCAGGAUGAAACAAUUUGGAGAAGUCCAGAUCGGAAGAGCACACGU
B6: target 2 MT 5'PFS CUG 3'PFS AAU (mixed)
RNA 1: B5 RNA 1
RNA 2: B5 RNA 2 with U27C, C29G, U52A, C53A, C54U
B7: target 2 MT 5'PFS CUG 3'PFS AAG (mixed)
RNA 1: B5 RNA 1
RNA 2: B5 RNA 2 with U27C, C29G, U52A, C53A, C54G
B8: target 2 MT 5'PFS UCU 3'PFS CUU (mixed)
RNA 1: B5 RNA 1
RNA 2: B5 RNA 2 with U28C, C29U, U52C, C53U, C54U
B9: target 2 MT 5'PFS UCU 3'PFS CUA (mixed)
RNA 1: B5 RNA 1
RNA 2: B5 RNA 2 with U28C, C29U, U52C, C53U, C54A
B10: target 2 MT 5'PFS UAC 3'PFS CAA (mixed)
RNA 1: B5 RNA 1
RNA 2: B5 RNA 2 with U28A, U52C, C53A, C54A
B11: target 2 MT 5'PFS AUU 3'PFS CUU (mixed)
RNA 1: B5 RNA 1
RNA 2: B5 RNA 2 with U27A, C29U, U52C, C53U, C54U
B12: target 2 MT 5'PFS GGC 3'PFS UAG (mixed)
RNA 1: B5 RNA 1
RNA 2: B5 RNA 2 with U27G, U28G, C53A, C54G
B13: target 2 MT 5'PFS CUG 3'PFS AAA (mixed)
RNA 1: B5 RNA 1
RNA 2: B5 RNA 2 with U27C, C29G, U52A, C53A, C54A
B14: target 2 MT 5'PFS UAG 3'PFS UUA (mixed)
RNA 1: B5 RNA 1
RNA 2: B5 RNA 2 with U28A, C29G, C53U, C54A
B15: target 2 MT 5'PFS GCA 3'PFS ACG (mixed)
RNA 1: B5 RNA 1
RNA 2: B5 RNA 2 with U27G, U28C, C29A, U52A, C54G
B16: target 2 MT 5'PFS UAC 3'PFS CAG (mixed)
RNA 1: B5 RNA 1
RNA 2: B5 RNA 2 with U28A, U52C, C53A, C54G
B17: target 2 MT 5'PFS AUG 3'PFS AGA (mixed)
RNA 1: B5 RNA 1
RNA 2: B5 RNA 2 with U27A, C29G, U52A, C53G, C54A
B18: target 2 MT 5'PFS AUG 3'PFS AGU (mixed)
RNA 1: B5 RNA 1
RNA 2: B5 RNA 2 with U27A, C29G, U52A, C53G, C54U
B19: target 2 MT 5'PFS UAG 3'PFS UUC (mixed)
RNA 1: B5 RNA 1
RNA 2: B5 RNA 2 with U28A, C29G, C53U
B20: target 2 MT 5'PFS GCG 3'PFS AAC (mixed)
RNA 1: B5 RNA 1
RNA 2: B5 RNA 2 with U27G, U28C, C29G, U52A, C53A
B21: target 2 MT 5'PFS CGC 3'PFS AAG (mixed)
RNA 1: B5 RNA 1
RNA 2: B5 RNA 2 with U27C, U28G, U52A, C53A, C54G
B22: target 2 MT 5'PFS AAA 3'PFS AUA (mixed)
RNA 1: B5 RNA 1
RNA 2: B5 RNA 2 with U27A, U28A, C29A, U52A, C53U, C54A
B23: target 2 MT 5'PFS CGC 3'PFS AAA (mixed)
RNA 1: B5 RNA 1
RNA 2: B5 RNA 2 with U27C, U28G, U52A, C53A, C54A
B24: target 2 MT 5'PFS AAC 3'PFS CUU (mixed)
RNA 1: B5 RNA 1
RNA 2: B5 RNA 2 with U27A, U28A, U52C, C53U, C54U
B25: target 2 MT 5'PFS GUG 3'PFS UAU (mixed)
RNA 1: B5 RNA 1
RNA 2: B5 RNA 2 with U27G, C29G, C53A, C54U
B26: target 2 MT 5'PFS CUG 3'PFS AAC (mixed)
RNA 1: B5 RNA 1
RNA 2: B5 RNA 2 with U27C, C29G, U52A, C53A
B27: target 2 MT 5'PFS AAC 3'PFS CUC (mixed)
RNA 1: B5 RNA 1
RNA 2: B5 RNA 2 with U27A, U28A, U52C, C53U
B28: target 2 MT 5'PFS GCA 3'PFS ACA (mixed)
RNA 1: B5 RNA 1
RNA 2: B5 RNA 2 with U27G, U28C, C29A, U52A, C54A
B29: target 2 MT 5'PFS AAC 3'PFS CUG (mixed)
RNA 1: B5 RNA 1
RNA 2: B5 RNA 2 with U27A, U28A, U52C, C53U, C54G
B30: target 2 MT 5'PFS UAC 3'PFS CAC (mixed)
RNA 1: B5 RNA 1
RNA 2: B5 RNA 2 with U28A, U52C, C53A
B31: target 2 MT 5'PFS UCU 3'PFS CUC (mixed)
RNA 1: B5 RNA 1
RNA 2: B5 RNA 2 with U28C, C29U, U52C, C53U
B32: target 2 MT 5'PFS GCG 3'PFS AAU (mixed)
RNA 1: B5 RNA 1
RNA 2: B5 RNA 2 with U27G, U28C, C29G, U52A, C53A, C54U
B33: target 2 MT 5'PFS GCA 3'PFS ACC (mixed)
RNA 1: B5 RNA 1
RNA 2: B5 RNA 2 with U27G, U28C, C29A, U52A
B34: target 2 MT 5'PFS AAG 3'PFS UUA (mixed)
RNA 1: B5 RNA 1
RNA 2: B5 RNA 2 with U27A, U28A, C29G, C53U, C54A
B35: target 2 MT 5'PFS CGC 3'PFS AAC (mixed)
RNA 1: B5 RNA 1
RNA 2: B5 RNA 2 with U27C, U28G, U52A, C53A

The data set has as its target T1, EsCas13d, nuclease-dead. The experiment in a line: crRNA (strand 1, pre-loaded); Mg2+; 40 mM Tris-HCl pH 7.5, 150 mM NaCl, 6 mM MgCl2, 1 mM DTT, 0.1% Tween-20, 0.2 mg/ml BSA; 25 C; 10 min per concentration, then washed. As to conditions: tags: His6-TwinStrep-SUMO cleaved; N-terminal SNAP kept (SNAP-Surface 488); label: 3' end held by stalled T7 RNA polymerase.
For B1, the Kd turned out to be 11.6 ± 1.4 nM.
For the molecule B2, the dissociation constant (Kd) is 8.2 ± 0.5 nM.
Consider B3, for which the Kd came out at 68 ± 14 nM.
For B4, the Kd was 19.2 ± 1.2 nM.
On to B5, for which the affinity, expressed as Kd, was 19.6 ± 3 nM.
Molecule B6 showed a Kd of 3.6 ± 0.5 nM.
In the case of B7, the Kd stood at 3 ± 0.4 nM.
In turn, B8 showed a Kd of 14.1 ± 2.5 nM.
With B9 the figure was 20 ± 6 nM.
Then B10, with 6 ± 1.1 nM; and B11, with 10 ± 1 nM; and B12, with 13.1 ± 2 nM.
Molecule B13 gave a Kd of 2.9 ± 0.32 nM.
Regarding B14, binding was characterised by a dissociation constant (Kd) of 8.1 ± 1.6 nM.
As to B15, the Kd is 13.3 ± 2 nM.
In turn, B16 gave a Kd of 8.5 ± 3 nM.
In turn, B17 yielded a Kd of 15 ± 5 nM.
As for B18, the affinity, expressed as Kd, was 11.1 ± 1.6 nM.
Regarding B19, binding was characterised by a dissociation constant (Kd) of 7.2 ± 0.9 nM.
Then B20, with 15 ± 4 nM; and B21, with 4 ± 0.6 nM; and B22, with 4.4 ± 1 nM.
With B23 the figure was 5.8 ± 1.6 nM.
In turn, B24 displayed a Kd of 9.1 ± 2.7 nM.
In turn, B25 registered a Kd of 9.5 ± 0.7 nM.
As to B26, binding was characterised by a dissociation constant (Kd) of 3.4 ± 0.4 nM.
Then B27, with 9 ± 3 nM; and B28, with 10.2 ± 1.7 nM; and B29, with 7.3 ± 1.3 nM.
In turn, B30 had a Kd of 5.3 ± 1 nM.
With B31 the figure was 9.3 ± 1.6 nM; with B32, 8.4 ± 1.3 nM; with B33, approximately 36 nM.
Molecule B34 registered a Kd of 6.8 ± 1.3 nM.
As for B35, the affinity, expressed as Kd, was 4.9 ± 0.5 nM.
